Data published in patent US20170233441A1.

Legend:
[1] = molecular target: gp120 subunit of BG505 SOSIP.664 (HIV-1 strain BG505); experiment: crystal structure, interfaces between protomers
[2] = molecular target: gp41 ectodomain subunit of BG505 SOSIP.664 (HIV-1 strain BG505); experiment: crystal structure, interfaces between protomers
[3] = molecular target: gp120 subunit of BG505 SOSIP.664 (HIV-1 strain BG505); experiment: crystal structure; includes 216 Å^2 from glycan-protein interactions
[4] = molecular target: BG505 SOSIP.664 trimer+sCD4 complex (HIV-1 strain BG505; human) (UniProt P01730)
[5] = molecular target: BG505 SOSIP.664 HIV-1 Env ectodomain trimer (HIV-1 strain BG505); experiment: crystal structure, interfaces between protomers

Substance: gp120 subunit of BG505 SOSIP.664
- buried surface of the gp120-gp120 trimer interface [1]: 861 Å^2
- buried surface of the gp120-gp41 interface between protomers [2]: 360 Å^2

Substance: gp41 ectodomain subunit of BG505 SOSIP.664
- buried surface of the gp41-gp41 trimer interface [2]: 1920 Å^2
- buried surface within a single protomer [3]: 5270 Å^2

Substance: 3074 antibody
- t1/2 of CD4-induced exposure of the epitope [4]: 4.2 h

Substance: BG505 SOSIP.664 HIV-1 Env ectodomain trimer
- buried surface of the trimer interfaces, contributed by each protomer [5]: 3140 Å^2
